Starred links: 1 amine or outer side, 2 acyl side, 3 side chain; linkers in the order of their positions; H or OH if unused. Non-standard residues stand in square brackets, D forms with d. Groups on a side chain read outwards from the residue. No end group written: not given here. *: point of attachment. C18 diacid = O=C(O)CCCCCCCCCCCCCCCCC(=O)*; C17 diacid = O=C(O)CCCCCCCCCCCCCCCC(=O)*; γGlu = O=C(O)[C@H](CCC(=O)[*:2])N[*:1]; NMeY = CN[C@@H](Cc1ccc(O)cc1)C(=O)O; AEEA = NCCOCCOCC(=O)O; Aib = CC(C)(N)C(=O)O
What was measured:
[1] = physchem
In short: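 3 mg of peptide treated with 100 μL portions of 200 mM phosphate buffer pH 7.4, sonicating/vortexing up to 1 min, with further buffer added until fully dissolved. Solubility then quantified by HPLC.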

[2] = Human plasma protein binding (PPB); type: in vitro ADME
In short: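 Peptides spiked at 1000 nmol/L into pooled human K2-EDTA plasma adjusted to pH 7.4, incubated 30 min at 37 °C, then ultracentrifuged at ~450,000 g, 4 °C for 3 h. Fu derived from LC-MS/MS (MRM) peak area ratios, supernatant versus plasma.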

[3] = Pharmacokinetics in dog after IV and SC dosing; details: in vivo
Description: Pharmacokinetic (PK) were conducted in dog in order to determine the half-life after IV and SC dosing. The peptide was dissolved in 10% DMSO/0.09% Polysorbate/PBS pH 7.4 to a concentration of 3 nmol/mL and the animal were dose with a volume of 1 mL/kg SC or IV. Blood sample were collected at 0, 0.033, 0.083, 0.25, 0.5, 1, 2, 4, 6, 8, 12, 24, 48, 72, 96, 120, 168, 336 hours for IV dosing and 0.25, 0.5, 1, 2, 4, 6, 8, 12, 24, 48, 72, 96, 120, 168, 336 for SC dosing, EDTA-K2 was used as anticoagulant. The plasma concentration of the peptide was measured using LCMS. Allometric scaling of lipidated peptide pharmacokinetics including T1/2 and MRT is known in the art for rodent to dog and mini pig and to humans. […] See for example, Discovery and Development of Liraglutide and Semaglutide. Knudsen, L. B.; Lau, J. Frontiers in Endocrinology, 2019, vol 10, Article 155.

[4] = Dog plasma protein binding (PPB); type: in vitro ADME; details: pH 7.4; fraction unbound; dog serum; read-out: Dog PPB (FUplasma)
In short: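 Dog serum replaced human serum, with the protocol and analysis otherwise the same as for human plasma protein binding. Values are reported as fraction unbound (Fu,plasma) expressed as a percentage.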

[5] = target: T1, human GLP-1R (Homo sapiens, UniProt P43220); assay: Human GLP1R agonist activity, intracellular cAMP accumulation; type: cell-based; details: HEK-293T cells overexpressing human GLP-1R, 1 hr, read-out: Human GLP1R cAMP EC50, HEK293T
T1 construct: HEK-293T cells overexpressing full-length human GLP-1R; FLAG (N); host or cells: HEK-293T
In short: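 Frozen assay-ready cells washed and resuspended at 4×10^5 cells/mL in Krebs Ringer buffer, then incubated with compound 1 hr at room temperature in the dark. cAMP read by HTRF (anti-cAMP antibody, d2-cAMP tracer). Normalised to 1 nm GLP-1 (100%) and DMSO (0%).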

[6] = target: dog plasma proteins; assay: plasma protein binding, ultracentrifugation, LC-MS/MS
[7] = target: human plasma proteins; assay: as above
[8] = target: T2, full-length human GIPR with an N-terminal FLAG tag (human, UniProt P48546 22-466); assay: cell-based or functional assay
T2 sequence (looked up): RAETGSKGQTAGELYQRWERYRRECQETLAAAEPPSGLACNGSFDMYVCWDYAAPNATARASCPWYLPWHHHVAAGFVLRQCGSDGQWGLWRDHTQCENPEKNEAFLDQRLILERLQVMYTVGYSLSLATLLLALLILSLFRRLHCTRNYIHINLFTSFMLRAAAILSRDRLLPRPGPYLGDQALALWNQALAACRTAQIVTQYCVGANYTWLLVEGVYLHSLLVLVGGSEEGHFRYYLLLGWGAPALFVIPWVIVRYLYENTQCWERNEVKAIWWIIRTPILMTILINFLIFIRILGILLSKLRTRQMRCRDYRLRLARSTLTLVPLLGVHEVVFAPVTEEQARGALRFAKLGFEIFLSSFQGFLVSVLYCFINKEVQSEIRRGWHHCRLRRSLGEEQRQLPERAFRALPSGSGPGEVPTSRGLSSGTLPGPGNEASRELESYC

[9] = target: full-length human GLP-1R with an N-terminal FLAG tag (human, UniProt P43220 24-463); assay: cell-based or functional assay

T1 sequence (P43220 24-463): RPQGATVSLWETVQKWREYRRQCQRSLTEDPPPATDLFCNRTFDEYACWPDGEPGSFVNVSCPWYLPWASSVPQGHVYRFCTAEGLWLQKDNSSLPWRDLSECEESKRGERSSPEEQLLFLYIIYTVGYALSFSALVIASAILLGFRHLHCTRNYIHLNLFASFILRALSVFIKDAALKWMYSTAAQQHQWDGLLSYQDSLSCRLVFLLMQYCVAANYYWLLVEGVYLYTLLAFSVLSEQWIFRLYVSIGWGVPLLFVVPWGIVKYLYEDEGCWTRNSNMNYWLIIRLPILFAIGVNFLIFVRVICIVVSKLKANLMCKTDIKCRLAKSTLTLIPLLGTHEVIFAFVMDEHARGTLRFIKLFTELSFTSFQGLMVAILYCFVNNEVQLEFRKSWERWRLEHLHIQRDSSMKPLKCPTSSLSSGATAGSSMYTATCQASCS

| Molecule | Dog PPB (FUplasma), fraction unbound in plasma (fraction unbound) [6] | Human PPB (FUplasma), fraction unbound in plasma (fraction unbound) [7] | Human GIPR cAMP EC50, HEK293T [8] [nM] | Human GLP1R cAMP EC50, HEK293T [9] [nM] | other results |
| --- | --- | --- | --- | --- | --- |
| CC[C@H](C)[C@H](NC(=O)[C@H](Cc1ccccc1)NC(=O)[C@@H](NC(=O)CNC(=O)[C@H](CCC(=O)O)NC(=O)C(C)(C)NC(=O)[C@H](Cc1ccc(O)cc1)NC)[C@@H](C)O)C(=O)N[C@@H](CO)C(=O)N[C@@H](CC(=O)O)C(=O)N[C@@H](Cc1ccc(O)cc1)C(=O)N[C@@H](CO)C(=O)N[C@H](C(=O)NC(C)(C)C(=O)N[C@@H](CCCCNC(=O)CNC(=O)CNC(=O)CNC(=O)CNC(=O)CNC(=O)CCCCCCCCCCCCCCCCC(=O)O)C(=O)N[C@@H](CC(=O)O)C(=O)N[C@@H](CCCNC(=N)N)C(=O)NC(C)(C)C(=O)N[C@@H](C)C(=O)N[C@@H](CCC(N)=O)C(=O)NC(C)(C)C(=O)N[C@@H](CC(=O)O)C(=O)N[C@@H](Cc1ccccc1)C(=O)N[C@H](C(=O)N[C@@H](CC(N)=O)C(=O)N[C@@H](Cc1c[nH]c2ccccc12)C(=O)N[C@@H](CC(C)C)C(=O)N[C@@H](CC(C)C)C(=O)N[C@@H](C)C(=O)N[C@@H](CCC(N)=O)C(=O)N[C@@H](CCCNC(=N)N)C(=O)NCC(=O)O)C(C)C)[C@@H](C)CC [Compound 294, Me-Y-Aib-E-G-T-F-I-S-D-Y-S-I-Aib-Km-D-R-Aib-A-Q-Aib-D-F-V-N-W-L-L-A-Q-R-G-OH] | – | – | – | – | solubility ([1]; pH 7.4): ≥ 15 mg/mL; solubility ([1]; pH 7.4, aqueous buffer): ≥ 30 mg/mL; fraction unbound ([2]; both sexes, pH 7.4, fraction unbound, human plasma, 1000 nmol/L peptide, ultracentrifugation, read-out: Human PPB (FUplasma)): < 0.002; free unbound peptide in human plasma (in words) ([2]; judged for once per week (QW) dosing): optimum free unbound peptide; half-life ([3]; IV 3 nmol/kg, read-out: IV T½ (converted)): 59 h; MRT last ([3]; SC 3 nmol/kg, read-out: SC MRT 0-last): 97 h; fraction unbound [4]: 0.0111; EC50 [5]: 38.9 nM |
| [NMeY][Aib]EGTFISDYSIALDR[Aib]K([AEEA-AEEA-γGlu-γGlu-C17 diacid])Q[Aib]NFVNWLLAQSPSSGAPPPS-NH2 [Compound No. 11] | < 0.0024 | 0.0038 | 0.0003 | 1000 | – |
| [NMeY][Aib]EGTFISDYSIALDR[Aib]AQ[Aib]K([AEEA-AEEA-γGlu-γGlu-C18 diacid])FVNWLLAQKG-OH [Compound No. 41] | 0.0007 | < 0.002 | – | – | – |
| [NMeY][Aib]EGTFISDYSI[Aib]LDR[Aib]AQ[Aib]NFVNWLLAQK([AEEA-AEEA-γGlu-γGlu-C18 diacid])PSSGAPPPS-NH2 [Compound No. 27] | < 0.002 | 0.0013 | 0.0004 | 87.1 | – |
| [NMeY][Aib]EGTFISDYSIALDR[Aib]AQ[Aib]K([AEEA-AEEA-γGlu-γGlu-C17 diacid])FVNWLLAQRG-OH [Compound No. 36] | 0.0034 | < 0.002 | 0.0007 | 87.1 | – |
| [NMeY][Aib]EGTFISDYSI[Aib]LDR[Aib]AQ[Aib]NFVNWLLAQK([AEEA-AEEA-γGlu-γGlu-C17 diacid])PSSGAPPPS-NH2 [Compound No. 16] | < 0.00116 | < 0.0012 | 0.0004 | 35.1 | – |
| [NMeY][Aib]EGTFISDYSIALDR[Aib]AQ[Aib]K(2OEGgEgE‑C20 diacid)FVNWLLAQKG-OH [Compound No. 39] | 0.0015 | 0.0112 | 0.0017 | 13.2 | – |
| [NMeY][Aib]EGTFISDYSIALDR[Aib]AQ[Aib]K([2OEGgEgE-C17 diacid])FVNWLLAQR-NH2 [Compound No. 8] | 0.0016 | 0.0009 | 0.0003 | 41.4 | – |
| [NMeY][Aib]EGTFISDYSIALDR[Aib]AQ[Aib]K([AEEA-AEEA-γGlu-γGlu-C18 diacid])FVNWLLAQRG-OH [Compound No. 37] | 0.0012 | 0.001 | 0.0005 | 44.7 | – |
| [NMeY][Aib]EGTFISDYSI[Aib]LDR[Aib]AQ[Aib]K([AEEA-AEEA-γGlu-γGlu-C17 diacid])FVNWLLAQRPSSGAPPPS-NH2 [Compound No. 13] | < 0.002 | < 0.002 | 0.0004 | 49 | – |
| [NMeY][Aib]EGTFISDYSI[Aib]LDRK([AEEA-AEEA-γGlu-γGlu-C17 diacid])AQ[Aib]NFVNWLLAQRPSSGAPPPS-NH2 [Compound No. 15] | 0.0021 | 0.0017 | 0.0003 | 35.9 | – |
| [NMeY][Aib]EGTFISDYSI[Aib]LDR[Aib]AQ[Aib]K([2OEGgEgE-C18 diacid])FVNWLLAQRG-OH [Compound No. 72] | 0.0062 | 0.0036 | 0.0005 | 43.2 | – |
| [NMeY][Aib]EGTFISDYSIALDR[Aib]HQ[Aib]NFVNWLLAK([AEEA-AEEA-γGlu-γGlu-C18 diacid])R-NH2 [Compound No. 19] | 0.0005 | 0.0011 | – | – | – |
